Experimental data from PMC9352680, “A comprehensive thermodynamic model for RNA binding by the Saccharomyces cerevisiae Pumilio protein PUF4”.

T1: PUF4 RNA-binding domain (Saccharomyces cerevisiae, UniProt P25339 537-888)
T1 sequence: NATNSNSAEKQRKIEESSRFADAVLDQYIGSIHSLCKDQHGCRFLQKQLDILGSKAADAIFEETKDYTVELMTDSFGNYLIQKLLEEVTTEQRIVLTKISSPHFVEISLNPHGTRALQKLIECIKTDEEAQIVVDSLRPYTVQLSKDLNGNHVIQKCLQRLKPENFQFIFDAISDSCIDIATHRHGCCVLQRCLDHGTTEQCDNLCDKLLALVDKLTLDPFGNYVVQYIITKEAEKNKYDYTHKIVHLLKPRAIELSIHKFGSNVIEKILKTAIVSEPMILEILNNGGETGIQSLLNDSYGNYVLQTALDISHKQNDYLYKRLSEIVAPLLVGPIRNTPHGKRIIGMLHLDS

B1: Id_ii_S1_P5E.4_K5.3_C5.2_[C-2A]_[T-1C]_H5.3_A5.1_F5.1_T5.2_[T11A]_[A12T] (ssRNA)
RNA: UCUCUUACACACUUAUUAAUUCUCUU
B2: Id_ii_S1_P5E.4_K5.3_C5.2_[C-2G]_H5.3_A5.1_F5.1_T5.2_[T11A]_[A12T] (ssRNA)
RNA: UCUCUUGUACACUUAUUAAUUCUCUU
B3: Id_ii_S1_P5E.4_K5.3_C5.2_[C-2G]_H5.3_A5.1_F5.1_T5.2_[A12C] (ssRNA)
RNA: UCUCUUGUACACUUAUUAUCUCUCUU
B4: Id_ii_S1_P5E.4_K5.3_C5.2_[C-2A]_[T-1G]_H5.3_A5.1_F5.1_T5.2_[A12T] (ssRNA)
RNA: UCUCUUAGACACUUAUUAUUUCUCUU
B5: Ib_S1_P5E.1_K5.1_C5.1_H5.1_A5.1_F5.1_[T8C]_[A10T]_T5.1 (ssRNA)
RNA: UCUCUUUGUAUUACUUUCUCUU
B6: Id_ii_S1_P5E.4_K5.3_C5.2_[C-2T]_[T-1C]_H5.3_A5.1_F5.1_T5.2_[T11A] (ssRNA)
RNA: UCUCUUUCACACUUAUUAAAUCUCUU
B7: Id_ii_S1_P5E.4_K5.3_C5.2_[C-2T]_[T-1A]_H5.3_A5.1_F5.1_T5.2_[A12T] (ssRNA)
RNA: UCUCUUUAACACUUAUUAUUUCUCUU
B8: Id_ii_S1_P5E.4_K5.3_C5.2_[C-2G]_H5.3_A5.1_F5.1_T5.2_[T11C]_[A12T] (ssRNA)
RNA: UCUCUUGUACACUUAUUACUUCUCUU
B9: Id_ii_S1_P5E.4_K5.3_C5.2_[C-2A]_[T-1C]_H5.3_A5.1_F5.1_T5.2_[T11A] (ssRNA)
RNA: UCUCUUACACACUUAUUAAAUCUCUU
B10: Ib_S1_P5E.1_K5.1_C5.1_H5.1_A5.1_F5.1_[T9G]_[A10C]_T5.1 (ssRNA)
RNA: UCUCUUUGUAUUAUGCUCUCUU
B11: Id_ii_S1_P5E.4_K5.3_C5.2_[C-2A]_[T-1G]_H5.3_A5.1_F5.1_T5.2_[T11A]_[A12C] (ssRNA)
RNA: UCUCUUAGACACUUAUUAACUCUCUU
B12: Id_ii_S1_P5E.4_K5.3_C5.2_[C-2A]_[T-1C]_H5.3_A5.1_F5.1_T5.2_[T11C]_[A12C] (ssRNA)
RNA: UCUCUUACACACUUAUUACCUCUCUU
B13: Ib_S1_P5E.1_K5.1_C5.1_H5.1_A5.1_F5.1_[T9G]_[A10G]_T5.1 (ssRNA)
RNA: UCUCUUUGUAUUAUGGUCUCUU
B14: Id_ii_S1_P5E.4_K5.3_C5.2_[C-2A]_[T-1A]_H5.3_A5.1_F5.1_T5.2_[T11C]_[A12T] (ssRNA)
RNA: UCUCUUAAACACUUAUUACUUCUCUU
B15: Id_ii_S1_P5E.4_K5.3_C5.2_[C-2G]_H5.3_A5.1_F5.1_T5.2_[T11G]_[A12C] (ssRNA)
RNA: UCUCUUGUACACUUAUUAGCUCUCUU
B16: Ib_S1_P5E.1_K5.1_C5.1_H5.1_A5.1_F5.1_[T9C]_[A10G]_T5.1 (ssRNA)
RNA: UCUCUUUGUAUUAUCGUCUCUU
B17: Id_ii_S1_P5E.4_K5.3_C5.2_[C-2T]_[T-1G]_H5.3_A5.1_F5.1_T5.2_[A12C] (ssRNA)
RNA: UCUCUUUGACACUUAUUAUCUCUCUU
B18: Id_ii_S1_P5E.4_K5.3_C5.2_[C-2T]_[T-1C]_H5.3_A5.1_F5.1_T5.2_[T11G]_[A12C] (ssRNA)
RNA: UCUCUUUCACACUUAUUAGCUCUCUU
B19: Id_ii_S1_P5E.4_K5.3_C5.2_[C-2A]_[T-1G]_H5.3_A5.1_F5.1_T5.2_[T11C] (ssRNA)
RNA: UCUCUUAGACACUUAUUACAUCUCUU
B20: Id_ii_S1_P5E.4_K5.3_C5.2_[C-2T]_H5.3_A5.1_F5.1_T5.2_[A12G] (ssRNA)
RNA: UCUCUUUUACACUUAUUAUGUCUCUU
B21: Id_ii_S1_P5E.4_K5.3_C5.2_[C-2A]_[T-1A]_H5.3_A5.1_F5.1_T5.2_[T11A]_[A12T] (ssRNA)
RNA: UCUCUUAAACACUUAUUAAUUCUCUU
B22: Id_ii_S1_P5E.4_K5.3_C5.2_[C-2G]_H5.3_A5.1_F5.1_T5.2_[T11A] (ssRNA)
RNA: UCUCUUGUACACUUAUUAAAUCUCUU
B23: Id_ii_S1_P5E.4_K5.3_C5.2_[C-2T]_H5.3_A5.1_F5.1_T5.2_[A12C] (ssRNA)
RNA: UCUCUUUUACACUUAUUAUCUCUCUU
B24: Id_ii_S1_P5E.4_K5.3_C5.2_[C-2T]_[T-1A]_H5.3_A5.1_F5.1_T5.2_[T11C]_[A12C] (ssRNA)
RNA: UCUCUUUAACACUUAUUACCUCUCUU
B25: Id_ii_S1_P5E.4_K5.3_C5.2_[C-2T]_[T-1A]_H5.3_A5.1_F5.1_T5.2_[A12C] (ssRNA)
RNA: UCUCUUUAACACUUAUUAUCUCUCUU
B26: Id_ii_S1_P5E.4_K5.3_C5.2_[C-2T]_[T-1C]_H5.3_A5.1_F5.1_T5.2 (ssRNA)
RNA: UCUCUUUCACACUUAUUAUAUCUCUU
B27: Id_ii_S1_P5E.4_K5.3_C5.2_[C-2T]_[T-1C]_H5.3_A5.1_F5.1_T5.2_[T11C]_[A12G] (ssRNA)
RNA: UCUCUUUCACACUUAUUACGUCUCUU
B28: Id_ii_S1_P5E.4_K5.3_C5.2_[C-2T]_H5.3_A5.1_F5.1_T5.2_[T11C]_[A12C] (ssRNA)
RNA: UCUCUUUUACACUUAUUACCUCUCUU
B29: Id_ii_S1_P5E.4_K5.3_C5.2_[C-2G]_H5.3_A5.1_F5.1_T5.2 (ssRNA)
RNA: UCUCUUGUACACUUAUUAUAUCUCUU
B30: Id_ii_S1_P5E.4_K5.3_C5.2_[C-2T]_[T-1C]_H5.3_A5.1_F5.1_T5.2_[T11C]_[A12C] (ssRNA)
RNA: UCUCUUUCACACUUAUUACCUCUCUU
B31: Id_ii_S1_P5E.4_K5.3_C5.2_[C-2A]_[T-1A]_H5.3_A5.1_F5.1_T5.2_[T11C]_[A12G] (ssRNA)
RNA: UCUCUUAAACACUUAUUACGUCUCUU

The binders below were run against T1, PUF4 RNA-binding domain (assay: Mg; RNA-MaP; 20 mM Na-HEPES pH 7.4, 30 mM KOAc, 0.75 mM MgCl2, 0.1% Tween-20, 5% glycerol, 0.1 mg/mL BSA, 2 mM DTT; 25 C; 0.0125-409.6 nM protein). Conditions: tags: N-His6-TEV cleaved; C-SNAP kept, Cy3B-labelled; label: tethered on chip by stalled RNA polymerase.

Going from B1 to B2, the Kd falls from greater than 2300 nM to 4.75 nM. The second binds more tightly here.

Compared with B3, B4 is higher in Kd: 2.94 nM for the first, greater than 2300 nM for the second. The first binds more tightly here.

First: B5
Second: B6
The Kd of the first is lower: 44.6 nM for the first, greater than 2300 nM for the second.

Compared with B7, B8 is lower in Kd: greater than 2300 nM for the first, 5.88 nM for the second. The second binds more tightly here.

Going from B9 to B10, the Kd falls from greater than 2300 nM to 15.2 nM. The second binds more tightly here.

B11 and B12 cannot be ordered by Kd: greater than 2300 nM for the first, greater than 2300 nM for the second.

Compared with B13, B14 is higher in Kd: 7.8 nM for the first, greater than 2300 nM for the second.

First: B15
Second: B16
The Kd of the first is 5.9-fold lower: 5.16 nM for the first, 30.6 nM for the second.

B17 and B18 cannot be ordered by Kd: greater than 2300 nM for the first, greater than 2300 nM for the second.

B19 and B20 cannot be ordered by Kd: greater than 2300 nM for the first, greater than 2300 nM for the second.

Compared with B21, B22 is lower in Kd: greater than 2300 nM for the first, 3.63 nM for the second. The second binds more tightly here.

B23 and B24 cannot be ordered by Kd: greater than 2300 nM for the first, greater than 2300 nM for the second.

B25 and B26 cannot be ordered by Kd: greater than 2300 nM for the first, greater than 2300 nM for the second.

B27 and B28 cannot be ordered by Kd: greater than 2300 nM for the first, greater than 2300 nM for the second.

Going from B29 to B30, the Kd rises from 3.91 nM to greater than 2300 nM.

Binder B31 has a Kd greater than 2300 nM.
